Measured values from patent publication US20040156820A1, “Adjuvant combination formulations” (priority 2000, published 2004).

B1: GM-CSF (10): recombinant murine granulocyte macrophage colony stimulating factor, given with Aβ1-42 peptide (protein, UniProt P01587 18-141, looked up)
Granulocyte-macrophage …: APTRSPITVTRPWKHVEAIKEALNLLDDMPVTLNEEVEVVSNEFSFKKLTCVQTRLKIFEQGLRGNFTKLKGALNMTASYYQTYCPPTPETDCETQVTTYADFIDSLKTFLTDIPFECKKPGQK

Tests used:
[1] = assay type: in vivo, cynomologous monkeys (Macaca fagscicularis); conditions: cynomologous monkeys, five immunizations weeks 0, 4, 8, 18, 23
Method: Immunizations: All intranasal immunizations were delivered with a 100 μl metered dose nasal spray device. All intramuscular injections were given in the quadriceps muscle with needle and syringe. All animals were immunized on a schedule of 0, 4, 8, 18 and 23 weeks.
Group 1: 1000 μg C4 (E9V)-V389.6P peptide in sterile normal saline, final volume 200 μl (100 μl each nostril).
Group 2: 1000 μg C4 (E9V)-V389.6P peptide, 50 μg 529 SE, and 250 μg human GM-CSF, final oil concentration 1%, final volume 1.0 ml (500 μl each quadriceps by IM injection).
All animals were closely monitored for changes in body temperature during the 24 hours immediately following each administration of the immunogen.

Aβ1-42 peptide = assay: Reciprocal anti-Aβ1-42 IgG endpoint total and subclass titers (Example 4); assay type: in vivo; conditions: Swiss-Webster mice n=10, 30 μg Aβ1-42 s.c. week 0 and 3
Chain of Aβ1-42 peptide (P05067 672-713): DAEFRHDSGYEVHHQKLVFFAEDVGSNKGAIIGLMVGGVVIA
Method: Formulations were mixed by vortex immediately prior to immunization.
After incubation, wells were washed, and developed with ABTS. Wells were read at 405 nm. Titers were standardized using control sera.
The same protocol was followed for analysis of […] peptide-specific antibody and subclass distribution, except that a concentration of 0.3 μg/ml per microtiter plate was used.
Outbred Swiss-Webster mice were divided into groups of ten mice each. Each group received 30 μg of Aβ1-42 peptide, which corresponds to an internal 42 amino acid long region of APP. […] Mice were immunized subcutaneously in the rump with a total volume of 0.2 ml, divided equally into each of two sites at the base of the tail/rump. Immunizations were administered at week 0 and week 3.
Mice were bled at days 0, 20, 35 and 70. Serum was analyzed from individual mice. Reciprocal endpoint anti-Aβ1-42 peptide IgG endpoint total class and subclass titers were measured from individual sera (n=10 Swiss-Webster) at week 5 and at week 10.

Row | Molecule | Immunogen safety and tolerability [1] | Anti-Aβ1-42 Week 5 IgG Endpoint Titers, Geometric Mean (Aβ1-42 peptide) | Anti-Aβ1-42 Week 10 IgG2a Endpoint Titers, Geometric Mean (Aβ1-42 peptide) | Anti-Aβ1-42 Week 10 IgG Endpoint Titers, Geometric Mean (Aβ1-42 peptide) | Anti-Aβ1-42 Week 5 IgG1 Endpoint Titers, Geometric Mean (Aβ1-42 peptide) | Anti-Aβ1-42 Week 5 IgG2a Endpoint Titers, Geometric Mean (Aβ1-42 peptide) | Anti-Aβ1-42 Week 10 IgG1 Endpoint Titers, Geometric Mean (Aβ1-42 peptide)
1 | CC[C@H](C)[C@H](NC(=O)[C@H](CO)NC(=O)[C@H](CC(C)C)NC(=O)[C@H](CCCNC(=N)N)NC(=O)[C@H](CCC(=O)O)NC(=O)[C@H](CCCNC(=N)N)NC(=O)[C@@H](NC(=O)[C@H](CC(N)=O)NC(=O)[C@H](CC(N)=O)NC(=O)[C@H](CC(N)=O)NC(=O)[C@@H]1CCCN1C(=O)[C@H](CCCNC(=N)N)NC(=O)[C@@H](NC(=O)[C@H](C)NC(=O)[C@H](Cc1ccc(O)cc1)NC(=O)[C@H](CCSC)NC(=O)[C@H](C)NC(=O)[C@H](CCCCN)NC(=O)CNC(=O)[C@@H](NC(=O)[C@@H](NC(=O)[C@H](CCC(N)=O)NC(=O)[C@H](Cc1c[nH]c2ccccc12)NC(=O)[C@H](CCSC)NC(=O)[C@H](CC(N)=O)NC(=O)[C@@H](NC(=O)[C@@H](NC(=O)[C@H](CCC(N)=O)NC(=O)[C@@H](N)CCCCN)[C@@H](C)CC)[C@@H](C)CC)C(C)C)C(C)C)[C@@H](C)O)[C@@H](C)O)C(=O)NCC(=O)N1CCC[C@H]1C(=O)NCC(=O)N[C@@H](CCCNC(=N)N)C(=O)N[C@@H](C)C(=O)N[C@@H](Cc1ccccc1)C(=O)N[C@@H](Cc1ccc(O)cc1)C(=O)N[C@@H](C)C(=O)N[C@@H](CCCNC(=N)N)C(=O)N[C@@H](CCCNC(=N)N)C(=O)O [C4(E9V)-V389.6P peptide alone] | extremely well tolerated |  |  |  |  |  | 
2 | None: 30 μg Aβ1-42 peptide (SEQ ID NO:6) without adjuvant |  | 12,976 | 5,910 | 21,426 |  |  | 
3 | B1 |  | 214,497 | 64,910 | 1,049,414 | 8,654 | 25,554 | 8,483
